Assay results: patent publication US20240294611A1
Values joined by “and” are separate entries in the source; they are usually repeats but may differ in a detail not shown here. Equal values may be shown once.

Target: SARS-CoV-2 spike (two-proline stabilized S-2P extracellular domain fused to foldon) (SARS-CoV-2) (UniProt P0DTC2)

antibody S309 (Pinto et al., 2020)
Kd: 7 nM and 20 nM
